This is an account of results in the supplement of paper PMC9170038.

The test system of the data set is MS2 coat protein. Briefly: apparent KD of MS2 coat protein; designed switch direction (-1 OFF switch, 1 ON switch): -1; higher = weaker reporter binding. An outline of the steps:
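Normalised cluster fluorescence was curve-fitted, and each design's median over clusters is its apparent KD. Before this, SNAP-549-labelled MS2 coat protein was titrated from 0.7 or 1.5 nM, doubling to 3 µM, over RNA switches transcribed on Illumina chips by stalled E. coli RNA polymerase. Titrations had no input, 200 uM small-molecule ligand, or an oligonucleotide input, and steps lasted 0.8–1.5 h (lowest) to 10–20 min (highest).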

The mark [1] stands for this setting: input ligand: microRNA oligo, concentration not stated.
[2] abbreviates: Eterna round: R95, input ligand: FMN 200 uM.
[3] abbreviates: Eterna round: R95, input ligand: microRNA oligo, concentration not stated.
The mark [4] stands for this setting: Eterna round: R95, input ligand: none.

As to “AGAUCGUCAGGAUAUACAUGAGGAUCACCCAUGUGUAGUCCAAAUUUGACUACAACAUGUAGAAGGGACGAUCG [Exclusion 3 (MOD2 of #1 Marzena11)] (Eterna round: R97, puzzle: Exclusion 3)”, the “apparent KD of MS2 coat protein” value was found to be 209 nM (input ligand: FMN 200 uM) and 44 nM (input ligand: none).
As to “AGAUCUAGGACAGGAUAUACUGAUGGCUUCAUCGAAGAUGAAGCCAUCACAUGAGGAUCACCCAUGUAGAAGGGUCCUAGAUCA [Omei Exc(NG) 2Av8] (Eterna round: R96, puzzle: Exclusion NG 2)”, the “apparent KD of MS2 coat protein” value under setting [1] turned out to be 9.55 nM.
Turning to “AGAUCUAGGACAGGAUAUAUAGAUGGCUUCAUCGAAGAUGAAGCCAUCACAUGAGGAUCACCCAUGUAGAAGGGUCCUAGAUCA [Omei Exc(NG) 2Av6] (Eterna round: R96, puzzle: Exclusion NG 2)”, the “apparent KD of MS2 coat protein” value runs as follows: (input ligand: FMN 200 uM) 10.9 nM; under setting [1], 8.74 nM; (input ligand: none) 10.3 nM.
With “AGAUGGCGAGGAUAUACAUGAGGAUCACCCAUGUGAGAAGAUAAAGUGAGGAAGAAAAGUAGAAGGCGCUGUCA [Mat - Exclusion 3 - Mod of Salish D23] (puzzle: Exclusion 3)”, the “apparent KD of MS2 coat protein” value by setting is: under setting [2], 68.3 nM; under setting [3], 44.9 nM; under setting [4], 45.1 nM.
On to “AGAUGGCGAGGAUAUACAUGAGGAUCACCCAUGUGAGAUAAAUAAGUGAGGAAGAAAAGUAGAAGGCGCUGUCA [Mat - Exclusion 3 - Mod of Salish D14] (puzzle: Exclusion 3)”, for which the “apparent KD of MS2 coat protein” value under setting [3] was 74.3 nM.
As for “AGAUGUAGAUACCGAUCCUACAUGAGGAUCACCCAUGUAGCUAGACGUGCUCGCGUAGCUCGUCAGACUACCAGUAG [salish99_TOv1_r3_087] (puzzle: Sensor v3, turn-off variant 1)”, the “apparent KD of MS2 coat protein” value came out at 242 nM under setting [2], 156 nM under setting [3] and 267 nM under setting [4].
Regarding “AGAUGUUAAGAGGAUAUCAGCCAAAACCGGCAGUGAGAAGGCUUGACAUGAGGAUCACCCAUGUUUUGCGGUAA [Islalaus] (Eterna round: R97, puzzle: Exclusion 6)”, the “apparent KD of MS2 coat protein” value by setting is: (input ligand: FMN 200 uM) 397 nM; (input ligand: none) 38.6 nM.
The matching figures for “AGCAAGUUAAGGUUGAUGCACAUGAGGAUCACCCAUGUUCGUCUUACAUGGAAAGUGGACGCGUUUAUGGAAAGGAG [Eternabot (L2) Solution 36] (Eterna round: R97, puzzle: Sensor, turn-off variant 1)”: 28.2 nM and 28.2 nM.
In the same order, the values of “AGCAGACGAGGAUAUAGAUUUAGAUACAUGAGGAUCACCCAUGUAUACAUGUAUUUAGAUUUAGAAGGCGUCUGCU [E5/14-A1] (Eterna round: R97, puzzle: Exclusion 5)” are 1250 nM and 1340 nM.
With “AGCAUGCUAGGAUAUACGGGACAUUAGGGUUCGUCGUAUGGACAUGAGGAUCACCCAUGUAGAAGGAGCGUGCA [Mat - Exclusion 2 - Mod of Hyphema - D93] (puzzle: Exclusion 2)”, under setting [3], the “apparent KD of MS2 coat protein” value was found to be 19.9 nM.
With “AGCCACAGAGGAUAUACAUACAUCCAGUAGUUAAGAAUAUUACAUGAGGAUCACCCAUGUAGAAGGCUGUGGCA [Omei Ex2 BD B7] (Eterna round: R97, puzzle: Exclusion 2)”, the “apparent KD of MS2 coat protein” value by setting is: (input ligand: FMN 200 uM) 352 nM; (input ligand: none) 35.4 nM.
“AGCCUGUAAGUAGGAUAUAUGAUCAGGAAUGAAAUAGAAGGGCUUAGUGGACAUGAGGAUCACCCAUGUCAAUGGGUUCAUGCA [Edria] (Eterna round: R96, puzzle: Exclusion NG 1)”: the “apparent KD of MS2 coat protein” value runs as follows: (input ligand: FMN 200 uM) 15 nM; under setting [1], 16 nM; (input ligand: none) 22.5 nM.
For “AGCGAGGUAGGAUAUACAUGAGGAUCACCCAUGUGCUUGUAUGGCGUGGAACAUCGUAGUAGAAGGGCCGCGCC [EX3 #76] (Eterna round: R97, puzzle: Exclusion 3)”, the “apparent KD of MS2 coat protein” value by setting is: (input ligand: FMN 200 uM) 21.9 nM; (input ligand: none) 20.9 nM.
With “AGCUAGAUAGGAUAUGCCCGGGAUAACAUGAGGAUCACCCAUGUGACCGAUUCAUGUCCUGCAGAAGGGUUUGGGA [Mod of ViennaUCT 7 - Jieux - Exclusion 5] (Eterna round: R97, puzzle: Exclusion 5)”, the “apparent KD of MS2 coat protein” value turned out to be 15.1 nM (input ligand: FMN 200 uM) and 12.7 nM (input ligand: none).
For “AGCUAGUCAGGAUAUUCUAAAUAUUACAUGAGGAUCACCCAUGUGAAUGGACAAGGGUGUGAAGAAGGGACUAGCG [Omei Ex5 A12] (Eterna round: R97, puzzle: Exclusion 5)”, the “apparent KD of MS2 coat protein” value is 262 nM (input ligand: FMN 200 uM) and 959 nM (input ligand: none).
Regarding “AGCUAGUCAGGAUAUUCUAUUAAUUACAUGAGGAUCACCCAUGUGAAUGGACGAGGGUGUGAAGAAGGGACUAGCG [Omei Ex5 A17] (Eterna round: R97, puzzle: Exclusion 5)”, the “apparent KD of MS2 coat protein” value worked out at 94.4 nM (input ligand: FMN 200 uM) and 226 nM (input ligand: none).
As for “AGCUGUGGCCGAGGAUAUACAUGAGGAUCACCCAUGUUACAUAAUUAGGCCUGGUAACAGGCUCCGUAGAAGGCGGUCUCAGCA [Eli eng2 - 005] (Eterna round: R96, puzzle: Exclusion NG 2)”, the “apparent KD of MS2 coat protein” value was 13 nM (input ligand: FMN 200 uM), 11.4 nM under setting [1] and 15.3 nM (input ligand: none).
As to “AGCUGUGGCCGAGGAUAUCUAACAAUCCAAACCGAAAUAUAAUCGGACAUGAGGAUCACCCAUGUAGAGAAGGCGGUCUCAGCA [Eli eng2 - 075] (Eterna round: R96, puzzle: Exclusion NG 2)”, the “apparent KD of MS2 coat protein” value under setting [1] worked out at 32.7 nM.
For “AGCUGUGGCCGAGGAUAUCUAAUAUCUCAAACCGAAAUAUAAUCGGACAUGAGGAUCACCCAUGUAGAGAAGGCGGUCUCAGCA [Eli eng2 - 064] (Eterna round: R96, puzzle: Exclusion NG 2)”, under setting [1], the “apparent KD of MS2 coat protein” value was found to be 23.6 nM.
On the same count and under the same terms, the figure for “AGCUGUGGCCGAGGAUAUCUAUCCAAAAUAACCGAAAUAUAAUCGGACAUGAGGAUCACCCAUGUAGAGAAGGCGGUCUCAGCA [Eli eng2 - 087] (Eterna round: R96, puzzle: Exclusion NG 2)” is 18.6 nM.
On to “AGGAAGCAAGGAUAUACGAGGAGAAGGUGGAGAUUUAAAGGACAUGAGGAUCACCCAUGUAGAAGGUGCGAGAA [JR_Exclu2_Sub046] (puzzle: Exclusion 2)”, for which the “apparent KD of MS2 coat protein” value under setting [2] was found to be 79.6 nM, the “apparent KD of MS2 coat protein” value under setting [3] was 44.3 nM and the “apparent KD of MS2 coat protein” value under setting [4] came to 50.4 nM.
Take “AGGCGCUCUGUUAGGAUAUUUGCUGACUACUAGGCGGAGAAGGAACAUGAGGAUCACCCAUGUAUACGAUCCGC [BmEX4 C.16] (Eterna round: R97, puzzle: Brourd's mod of Exclusion 4)”: the “apparent KD of MS2 coat protein” value stood at 13.7 nM (input ligand: FMN 200 uM) and 12.1 nM (input ligand: none).
Turning to “AGGGAACGAGGAUAUCGAUGGUGGAACAUGAGGAUCACCCAUGUAUGAGAUAGAGUAGGGCGAGAAGGCGUUAAGA [JR_E5_Sub051] (puzzle: Exclusion 5)”, the “apparent KD of MS2 coat protein” value was found to be 47.6 nM under setting [2], 55.6 nM under setting [3] and 84.9 nM under setting [4].
Regarding “AGGGAAGAGUGAGGAUAUGGAAAUUUGGUGAGAACAUGAGGAUCACCCAUGUGGAAACAAGAAAAUUAGAAGGUAUAGGGAGGG [AK ExNG2-1.2] (Eterna round: R96, puzzle: Exclusion NG 2)”, the “apparent KD of MS2 coat protein” value is 48 nM (input ligand: FMN 200 uM), 45.3 nM under setting [1] and 61.3 nM (input ligand: none).
For “AGGGACUAAGGAUAUACUUAGGAGAUAAACGACUGGUGAACACUUGAGGAUCACCCAAGUAGAAGGUAGUCAAA [Enonsoor] (Eterna round: R97, puzzle: Exclusion 2)”, the “apparent KD of MS2 coat protein” value by setting is: (input ligand: FMN 200 uM) 135 nM; (input ligand: none) 30.4 nM.
For the sequence “AGGGUAAAGUUAGGAUAUGCGAAUAAUCCAGACGCAGAAGGAACAGGUCGCAUGUGAGUCACAUGAGGAUCACCCAUGUAACUA [Ceissoar] (Eterna round: R96, puzzle: Exclusion NG 1)”, the “apparent KD of MS2 coat protein” value reads like this: (input ligand: FMN 200 uM) 143 nM; under setting [1], 29.6 nM; (input ligand: none) 36.1 nM.
Take “AGGUCACAUGAGGAUCACCCAUGUCAGGAUAUCGUCACUGGAGCCUCGGCUCCAGUGACGAGAAGGGAUAAUUA [E1/8-A2] (Eterna round: R97, puzzle: Exclusion 1)”: the “apparent KD of MS2 coat protein” value came out at 75.3 nM (input ligand: FMN 200 uM) and 50.5 nM (input ligand: none).
In the same order, the values of “AGGUCACAUGAGGAUCACCCAUGUGAGGAUAUUUACUCAAGAGCUUCGGCUCUCAGGUGAAGAAGGCGCAAUGA [EX1 #54] (Eterna round: R97, puzzle: Exclusion 1)” are 27.2 nM and 30 nM.
For “AGGUCCUUCUGGAGACAUGAGGAUCACCCAUGUCGGGUCAGCGAGGAUAUCGGUUAAUAAUGUGACGAGAAGGCGCGGACCGAU [Ex NG3 #56] (Eterna round: R96, puzzle: Exclusion NG 3)”, the “apparent KD of MS2 coat protein” value is, setting by setting: (input ligand: FMN 200 uM) 104 nM; under setting [1], 19.5 nM; (input ligand: none) 24.9 nM.
Turning to “AGGUGUAGAGGAUAUCGAGUCCUUUACAUGAGGAUCACCCAUGUCCUGGGCACCCAGGACCGAGAAGGCUACACCA [Omei Ex5 D32] (Eterna round: R97, puzzle: Exclusion 5)”, the “apparent KD of MS2 coat protein” value runs as follows: (input ligand: FMN 200 uM) 353 nM; (input ligand: none) 223 nM.
Consider “AGGUGUAGAGGAUAUCUCUUCUCUCACAUGAGGAUCACCCAUGUCCUAAAGUCCUAGGAGAGAGAAGGCUACACCA [Omei Ex5 D3] (Eterna round: R97, puzzle: Exclusion 5)”, for which the “apparent KD of MS2 coat protein” value is, setting by setting: (input ligand: FMN 200 uM) 230 nM; (input ligand: none) 82.8 nM.
